Results on three substances are retold here after article PMC4751342.

Assay [1] has as its target mouse Izumo1, immobilized AVEXIS bait (UniProt Q9D9J7). Kind of assay: AVEXIS. The settings on record: parent: est. 0.51; read off a plot.
Assay [2] deals with human Izumo1, immobilized AVEXIS bait (UniProt Q8IYV9). As to the kind of experiment: AVEXIS. The settings on record: parent: est. 0.16; read off a plot.
human Izumo1, immobilized AVEXIS bait, sequence (Q8IYV9 22-350): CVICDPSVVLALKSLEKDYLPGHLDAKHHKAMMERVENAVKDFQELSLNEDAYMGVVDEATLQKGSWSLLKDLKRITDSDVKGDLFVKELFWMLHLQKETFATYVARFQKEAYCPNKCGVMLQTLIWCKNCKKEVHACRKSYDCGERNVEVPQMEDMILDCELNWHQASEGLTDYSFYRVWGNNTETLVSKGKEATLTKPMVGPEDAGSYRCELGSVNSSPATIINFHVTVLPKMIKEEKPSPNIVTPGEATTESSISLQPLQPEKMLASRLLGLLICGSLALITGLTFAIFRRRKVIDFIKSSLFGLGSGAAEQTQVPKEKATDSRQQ

mouse Izumo1, immobilized AVEXIS bait, sequence (Q9D9J7 22-397): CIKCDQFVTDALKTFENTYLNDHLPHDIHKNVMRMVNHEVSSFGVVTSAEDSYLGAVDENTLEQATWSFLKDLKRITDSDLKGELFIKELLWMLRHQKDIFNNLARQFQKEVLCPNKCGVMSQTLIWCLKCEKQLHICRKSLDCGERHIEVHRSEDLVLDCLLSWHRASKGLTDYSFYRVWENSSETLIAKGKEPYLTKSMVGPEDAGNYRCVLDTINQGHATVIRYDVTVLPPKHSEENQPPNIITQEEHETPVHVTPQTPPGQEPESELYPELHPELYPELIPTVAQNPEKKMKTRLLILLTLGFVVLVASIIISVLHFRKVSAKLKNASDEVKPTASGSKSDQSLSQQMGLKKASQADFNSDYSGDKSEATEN
mouse Juno, wild type, AVEXIS prey (from UniProt Q9EQF4) Loop 2 (mouse Juno loop 2 replaced with the corresponding human residues), sequence (Q9EQF4 20-222, change not shown): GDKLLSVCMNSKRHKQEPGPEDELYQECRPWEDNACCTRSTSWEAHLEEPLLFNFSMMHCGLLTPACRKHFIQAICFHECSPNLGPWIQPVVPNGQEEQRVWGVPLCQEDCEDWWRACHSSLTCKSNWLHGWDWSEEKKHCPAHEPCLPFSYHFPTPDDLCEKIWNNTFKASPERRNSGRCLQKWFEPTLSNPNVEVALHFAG
mouse Juno, wild type, AVEXIS prey (from UniProt Q9EQF4) Loop1 (mouse Juno loop 1 replaced with the corresponding human residues), sequence (Q9EQF4 20-222, change not shown): as above
mouse Juno, wild type, AVEXIS prey (from UniProt Q9EQF4) Loop 3 (mouse Juno loop 3 replaced with the corresponding human residues), sequence (Q9EQF4 20-222, change not shown): as above

With “mouse Juno, wild type, AVEXIS prey (from UniProt Q9EQF4) Loop 2 (mouse Juno loop 2 replaced with the corresponding human residues)”, the values for the response in assay [1] and in assay [2] were 0.51 A 485 nm and 0.17 A 485 nm, respectively.
The like results for “mouse Juno, wild type, AVEXIS prey (from UniProt Q9EQF4) Loop1 (mouse Juno loop 1 replaced with the corresponding human residues)” were, in that order, 0.22 A 485 nm and 0.16 A 485 nm.
The like results for “mouse Juno, wild type, AVEXIS prey (from UniProt Q9EQF4) Loop 3 (mouse Juno loop 3 replaced with the corresponding human residues)” were, in that order, 0.52 A 485 nm and 0.51 A 485 nm.
